Source: patent publication US20200255508A1
Residue numbers refer to the chain shown, from its start.

B1: E9.1 (antibody, human IgG1, V domains shown)
VH: EVQLQESGPGLVKPSETLSLTCTVSGGSISSSSYYWGWIRQPPGKGLEWIGDIYYTGSTYYNPSLKSRVTISVDTSKNQFSLKLSSVTAADTAVYYCAREDVILRGGSDYWGQGTLVTVSS
VL: SYELTQPPSVSVSPGQTASITCSGQRLGDKYASWYQQKPGQSPVLVIYEDSKRPSGIPERFSGSNSGDTATLTISGTQPMDEADYYCQAWDRDTGVFGYGTRVTVLG
B2: E9 (antibody, IgG1, V domains shown)
VH: B1 VH
VL: SYELTQPPSVSVSPGQTASITCSGQRLGDKYASWYQQKPGQSPVLVIYEDSKRPSGIPERFSGSNSGDTATLTISGTQPMDEADYYCQAWDRDTGVFGYGTRVTVL
B3: E9.71 (antibody, V domains shown)
VH: B1 VH with E100Q, D101A, V102L, I103A, L104M, R105G, Y110K
VL: B2 VL with R102K
B4: E9.19 (antibody, V domains shown)
VH: B1 VH with E100F, I103S, R105G, Y110T
VL: B2 VL with R102K
B5: A10 (antibody, IgG1, V domains shown)
VH: EVQLLESGGGLVKSGGSLRLSCAASGFTFRSHWMSWVRQAPGKGLEWVAIISYDGSNKYSADSVKGRFTISRDNSKNTLYLQLNSLRAEDTAVYYCAKAGGGNVGFDIWGQGTMVTVSS
VL: LPVLTQPPSVSVSPGQTASITCSADKLGTKYVSWYQQKPGQSPVLVIYQDAKRPSGIPERFSGSNSGNTATLTISGTQTMDEADYLCQSWDRSDVVFGGGTKVTVL
B6: E9.2B (antibody, V domains shown)
VH: B1 VH with S33N, Y54N, T56N, S58N, D101A, I103A, R105G, S108A, Y110D
VL: B2 VL with Q25E, R26G, A32V, K52T, R92S, D93E, Y99S, R102K
B7: E9-FR2 (antibody, V domains shown)
VH: EVTLRESGPALVKPTQTLTLTCTVSGGSISSSSYYWGWIRQPPGKGLEWIGDIYYTGSTYYNPSLKSRVTISVDTSKNQFVLTMTNMDPVDTATYYCAREDVILRGGSDYWGQGTTVTVSS
VL: DYVLTQSPDSLAVSLGERATINCSGQRLGDKYASWYQQKPGQSPKLVIYEDSKRPSGIPDRFSGSNSGDDATLTISSLQAEDVAVYYCQAWDRDTGVFGGGTKVEIKR
B8: E9-FR1 (antibody, V domains shown)
VH: EVQLVQSGTEVKKPGESLKISCKVSGGSISSSSYYWGWIRQMPGKGLEWIGDIYYTGSTYYNPSLKSQVTISVDTSFNTFFLQWSSLKASDTAMYYCAREDVILRGGSDYWGQGTMVTVSS
VL: EYVLTQSPATLSVSPGERATLSCSGQRLGDKYASWYQQKPGQSPRLVIYEDSKRPSDIPARFSGSNSGDEATLTISSLQSEDFAVYYCQAWDRDTGVFGQGTRLEIKR

biological target: cynomolgus monkey DLL4 extracellular domain (cynomolgus monkey); experiment: Biacore SPR

Binder	Kd [nM]	koff [s⁻¹]	kon [M⁻¹ s⁻¹]
B1	4.08	–	–
B2	4.2	7.4e-05	18000
B3	0.49	3.79e-05	77500
B4	0.25	4.86e-05	192000
B5	7.8	0.00015	19000

biological target: cynomolgus monkey DLL4 extracellular domain (cynomolgus monkey); experiment: capture ELISA

Binder	EC50 [nM]
B2	0.4
B6	0.45
B3	0.44
B4	0.46
B5	0.44

biological target: cynomolgus monkey DLL4 extracellular domain (cynomolgus monkey); experiment: Biacore SPR; remark: another data set of the same source

Binder	Kd [nM]
B7	0.3
B1	0.47
B8	0.74

biological target: cyno DLL4-his (cynomolgus monkey); experiment: ELISA on DLL4-his

Binder	EC50 [nM]
B1	0.24

biological target: cyno DLL4-his (cynomolgus monkey); experiment: ELISA on DLL4-his; remark: another data set of the same source

Binder	EC50 [nM]
B7	0.12
B1	0.035
B8	0.12

biological target: cynomolgus monkey DLL4 extracellular domain (cynomolgus monkey); experiment: competition ELISA, competitor huNotch-1

Binder	IC50 [nM]
B2	2.1
B6	2.2
B3	2
B4	1.5
B5	5.1
